# According to the RNAGym collection of RNA variant scans (doi:10.7554/elife.90254):
# B1: OR4K15 (parent)
# chain: GUUAACGGUCAUAGGCCAUGGAAACUAGGAGCACCAUUUCGCUGCCAGUGAAGAAAUGAACAAAGAAAAUCUGGGCCAGGCAGGCAUCAAAAGAAAUAGUCUUGCGCUCAACCAGAAAGUCUGUAAUCAUUUUAAGGGUA
# Variants of: B1
# Experiment: self-cleavage, relative activity (ratio to wild type); higher = more cleavage; in vitro, sequencing; the parent is a self-cleaving ribozyme
row,Variant,self-cleavage
1,GUUAACGGUCAUAGGCCAUGGAAACUAGGAGCACCAUUUCGCUGCCAGUGAAGAAAUGAACAAAGAAAAUCUGGGCCAGGCAGGCGUCAAAAGAAAUAGUCUUGCGCUCAAACAGAAAGUCUGUAAUCAUUUUAAGGGUA,0
2,GUUAACGGUCGUAGGCCAUGGAAACUAGGAGCACCAUUUCGCUGCCAGUGAAGAAAUGAACAAAGAAAAUCUGGGCCAGGCAGGCAUCAAAAGAAAUAGUCUUGCGCUCAACCAGAAAGUCUGUAAUCAUUUUAGGGGUA,1.41
3,GUUAACGGUCAUAGGCCAUGGAAACUAGGAGCACCAUUUCGCUGCCAGUGAAGAAAUGAACAAAGAAAAUCUGAGCCAGGCAGGCAUCAAAAGUAAUAGUCUUGCGCUCAACCAGAAAGUCUGUAAUCAUUUUAAGGGUA,0.19
4,GUUAACGGUCAUAGGCCAUGGAAACUGGGAGCACCAUUUCGCUGCCAGUGAAGAAAUGAACAAAGAAAAUCUGGGCCAGGCAGGCUUCAAAAGAAAUAGUCUUGCGCUCAACCAGAAAGUCUGUAAUCAUUUUAAGGGUA,1.34
5,GUUAACGGUCAUAGGCCAUGGAAACUAGGAGCACCAUUUCGCUGCCAGUGAAGAAAUGAACAAAGAAAAUCUGGGCCAGGCAGGCAUCAAAAGAAAUAGUCUUGCGCCCAACCAGAAAGUCUGUAAUCAUUUUAAGGGAA,0.04
6,GUUAACGGUCAUAGGCCAUGGAAACUAGGAGCACCAUUUCGCUGCCAGUGAAGAAAUGAACAAAGAAAAUCUGGGCCAGGCAGGCAUCGAAAGAAAUAGUCUUGCGCUCAACCAGAAAGUCUGUAAUCAUUCUAAGGGUA,1.4
7,GUUAACGGUCAUAGGCCAUGGAAACUAGGAGCACCAUUUCGCUACCAGUGAAGAAAUGAACAAAGAAAAUCUGGGCCAGGCAGUCAUCAAAAGAAAUAGUCUUGCGCUCAACCAGAAAGUCUGUAAUCAUUUUAAGGGUA,0.93
8,GUUAACGGCCAUAGGCCAUGGAAACUAGGGGCACCAUUUCGCUGCCAGUGAAGAAAUGAACAAAGAAAAUCUGGGCCAGGCAGGCAUCAAAAGAAAUAGUCUUGCGCUCAACCAGAAAGUCUGUAAUCAUUUUAAGGGUA,1.13
9,GUUAACGGUCAUAGGCCAUGGAAACUAGGAGUACCAUUUCGCUGCCAGUGAAGAAAUGAACAAAGAAAAUCUGGGCCAGGCAGGCAUCAAAAGAAAUAGUCUUGCGCUCAACCAGAAAGUUUGUAAUCAUUUUAAGGGUA,2.22
10,GUUAACGGUCAUAAGCCAUGGAAACUAGGAGCACCAUUUCGCUGCCAGUGAAGAGAUGAACAAAGAAAAUCUGGGCCAGGCAGGCAUCAAAAGAAAUAGUCUUGCGCUCAACCAGAAAGUCUGUAAUCAUUUUAAGGGUA,1.58
11,GUUAACGGUCAUAGGCCAUGGAAACUAGGAGCACCAUUUCGCUGCCAGUGAAGAAAUGAACGAAGAAAAUCUGGGCCAGGCAGGCAUCAAAAGAAAUAGUCUUGCGCACAACCAGAAAGUCUGUAAUCAUUUUAAGGGUA,0.01
12,GUUAACGGUCAUAGGCCAUGGGAACUAGGAGCACCAUUUCGCUGCCAGUGAAGAAAUGAACAAAGAAAAUCUGGGCCAGGCAGGCAUCAAAAGAAAUAGUCGUGCGCUCAACCAGAAAGUCUGUAAUCAUUUUAAGGGUA,1.05
13,GUUAACGGUCAUAGGCCAUGGAAACUAGGAGCACCAUUUCGCUGCUAGUGAAGAAGUGAACAAAGAAAAUCUGGGCCAGGCAGGCAUCAAAAGAAAUAGUCUUGCGCUCAACCAGAAAGUCUGUAAUCAUUUUAAGGGUA,1.12
14,GUUAACGGUCAUAGGCCAUGGAAACUAGGCGCACCAUUUCGCUGCCAGUGAAGAAAUGAACAAAGAAAAUCUGGGCCAGGCAGGCAUCAAAAGAAAUAGUCUUGCGCUCAACCAGAAAGUCUGUGAUCAUUUUAAGGGUA,0.31
15,GUUAACGGUCAUAGGCCAUGGAAACUAGGAGCACCAUUUCGCUGCCAGUGAAGAAAUGAACAAAGAAAAUCUGGGCCAGGCAGGCAUCAAAAGAGAUAGUCUUGCGCUCAACCCGAAAGUCUGUAAUCAUUUUAAGGGUA,0.06
16,GUUAACGGUCAUAGGCCAAGGAAACUAGGAGCACCAUUUCGCUGCCAGUGAAGAAAUGAACAAAGAAAAUCUGGGCCAGGCAGGCAUCAAAAGAAAUGGUCUUGCGCUCAACCAGAAAGUCUGUAAUCAUUUUAAGGGUA,0.5
17,GUUAACGGUCAUAGGCCAUGGAAACUGGGAGCACCAUCUCGCUGCCAGUGAAGAAAUGAACAAAGAAAAUCUGGGCCAGGCAGGCAUCAAAAGAAAUAGUCUUGCGCUCAACCAGAAAGUCUGUAAUCAUUUUAAGGGUA,1.12
18,GUUAACGGUCAUAGGCCAUGGAAACUAGGAGCACCAUUUCGCUGCCAGUGAAGAAAUGAACAAAGAAAAUCUGGGCCAGGCAGGCGUCAAAAGAAAUGGUCUUGCGCUCAACCAGAAAGUCUGUAAUCAUUUUAAGGGUA,0.52
19,GAUAACGGUCAUAGGCCAUGGAAACUAGGAGCACCAUUUCGCUGCCAGUGAAGAAAUGAACAAAGAAAAUCUGGGCCAGGCAGGCAUCAAAAGAAAUAGUCUUGCGCUCAACCAGUAAGUCUGUAAUCAUUUUAAGGGUA,0.18
20,GUUAACGGUCAUAGGCCAUGGAAACUAGGAGCACCAUUUCGCUGCCAGUGAAGAAAUGAGCAAAGAAAAUCUGGGCCAGGCAGGCAUCAAAAGAAAUAGUCUUGCGCUCAAACAGAAAGUCUGUAAUCAUUUUAAGGGUA,0.02
21,GUUAACGGUCAUAGGCCAUGGAAACUAGGAGCACCAUUUCGCUGCCAGUGAAGAAAUGAACAAAGAAAAUCUGGGCCCGGCAGGCAUCAAAAGAAAUAGUCUUGCGCUCAACCAGAAAGUCUGUAAUCAUUUCAAGGGUA,0.24
